# Results as given in patent publication US20210269521A1 (L AND L BIOPHARMA, published 2021).
# Like-named read-outs stand apart in the source and are kept apart here.
# B1: bispecific antibody LB127 (bispecific antibody, human IgG4 S228P, kappa)
# light: DIQMTQSPSSLSASVGDRVTITCHASQGISSNIGWLQQKPGKAFKGLIYQGSNLEDGVPSRFSGSGSGADYTLTISSLQPEDFATYYCVQFAQFPPTFGQGTKLEIKRTVAAPSVFIFPPEIVLTQSPATLSLSPGERATISCRASKGVSTSGYSYLHWYQQKPGQAPRLLIYLASYLESGVPARFSGSGSGTDFTLTISSLEPEDFATYYCQHSRELPLTFGTGTKVEIKRTVAAPSVFIFPPSDEQLKSGTASVVCLLNNFYPREAKVQWKVDNALQSGNSQESVTEQDSKDSTYSLSSTLTLSKADYEKHKVYACEVTHQGLSSPVTKSFNRGEC
# heavy: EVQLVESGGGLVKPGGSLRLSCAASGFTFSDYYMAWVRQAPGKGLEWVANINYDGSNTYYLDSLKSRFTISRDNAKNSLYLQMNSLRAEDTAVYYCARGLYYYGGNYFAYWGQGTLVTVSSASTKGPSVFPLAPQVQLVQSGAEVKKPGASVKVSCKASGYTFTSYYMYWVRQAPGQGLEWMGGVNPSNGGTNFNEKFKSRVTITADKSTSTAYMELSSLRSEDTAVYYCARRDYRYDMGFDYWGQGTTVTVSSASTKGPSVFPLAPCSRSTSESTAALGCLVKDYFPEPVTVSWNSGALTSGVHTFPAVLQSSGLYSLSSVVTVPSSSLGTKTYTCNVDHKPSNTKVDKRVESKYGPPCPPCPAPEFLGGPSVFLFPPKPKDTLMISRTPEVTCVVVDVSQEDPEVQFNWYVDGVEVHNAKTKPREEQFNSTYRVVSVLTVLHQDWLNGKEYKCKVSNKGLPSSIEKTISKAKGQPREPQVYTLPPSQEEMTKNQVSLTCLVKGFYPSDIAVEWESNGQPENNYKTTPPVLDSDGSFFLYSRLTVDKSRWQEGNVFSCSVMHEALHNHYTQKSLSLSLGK
# B2: bispecific antibody LB135 (bispecific antibody, human IgG4 S228P, kappa)
# light: EIVLTQSPATLSLSPGERATISCRASKGVSTSGYSYLHWYQQKPGQAPRLLIYLASYLESGVPARFSGSGSGTDFTLTISSLEPEDFATYYCQHSRELPLTFGTGTKVEIKRTVAAPSVFIFPPSDEQLKSGTASVVCLLNNFYPREAKVQWKVDNALQSGNSQESVTEQDSKDSTYSLSSTLTLSKADYEKHKVYACEVTHQGLSSPVTKSFNRGEC
# heavy: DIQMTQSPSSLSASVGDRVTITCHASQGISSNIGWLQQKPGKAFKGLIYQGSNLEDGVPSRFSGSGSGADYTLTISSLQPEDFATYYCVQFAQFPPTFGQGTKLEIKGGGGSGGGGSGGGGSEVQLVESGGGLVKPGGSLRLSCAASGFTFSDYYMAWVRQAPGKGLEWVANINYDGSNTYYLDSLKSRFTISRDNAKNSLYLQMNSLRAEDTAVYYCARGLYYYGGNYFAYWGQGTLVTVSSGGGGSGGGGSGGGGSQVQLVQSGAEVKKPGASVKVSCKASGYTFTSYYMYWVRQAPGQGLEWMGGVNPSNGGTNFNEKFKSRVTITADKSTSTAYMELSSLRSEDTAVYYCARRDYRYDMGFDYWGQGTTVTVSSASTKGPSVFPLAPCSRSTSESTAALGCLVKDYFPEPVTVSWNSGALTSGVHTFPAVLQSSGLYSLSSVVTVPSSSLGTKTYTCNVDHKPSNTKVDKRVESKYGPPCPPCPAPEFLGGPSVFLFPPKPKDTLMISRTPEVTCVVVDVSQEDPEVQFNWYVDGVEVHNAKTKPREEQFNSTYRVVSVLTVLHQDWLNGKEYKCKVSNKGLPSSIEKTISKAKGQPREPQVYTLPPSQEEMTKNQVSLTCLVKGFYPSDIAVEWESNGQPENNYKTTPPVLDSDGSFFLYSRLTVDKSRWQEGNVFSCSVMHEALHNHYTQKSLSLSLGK
# notes: ab6VL-(G4S)3-ab6VH-(G4S)3-Ba08VH-hIgG4 with Ba08VL-κ
# B3: bispecific antibody LB123 (bispecific antibody, human IgG4 S228P, kappa)
# light: EIVLTQSPATLSLSPGERATISCRASKGVSTSGYSYLHWYQQKPGQAPRLLIYLASYLESGVPARFSGSGSGTDFTLTISSLEPEDFATYYCQHSRELPLTFGTGTKVEIKRTVAAPSVFIFPPSDEQLKSGTASVVCLLNNFYPREAKVQWKVDNALQSGNSQESVTEQDSKDSTYSLSSTLTLSKADYEKHKVYACEVTHQGLSSPVTKSFNRGEC
# heavy: not shown
# B4: bispecific antibody LB247 (bispecific antibody, human IgG4 S228P, kappa)
# light: EIVLTQSPATLSLSPGERATLSCRASKGVSTSGYSYLHWYQQKPGQAPRLLIYLASYLESGVPARFSGSGSGTDFTLTISSLEPEDFAVYYCQHSRDLPLTFGGGTKVEIKRTVAAPSVFIFPPSDEQLKSGTASVVCLLNNFYPREAKVQWKVDNALQSGNSQESVTEQDSKDSTYSLSSTLTLSKADYEKHKVYACEVTHQGLSSPVTKSFNRGEC
# heavy: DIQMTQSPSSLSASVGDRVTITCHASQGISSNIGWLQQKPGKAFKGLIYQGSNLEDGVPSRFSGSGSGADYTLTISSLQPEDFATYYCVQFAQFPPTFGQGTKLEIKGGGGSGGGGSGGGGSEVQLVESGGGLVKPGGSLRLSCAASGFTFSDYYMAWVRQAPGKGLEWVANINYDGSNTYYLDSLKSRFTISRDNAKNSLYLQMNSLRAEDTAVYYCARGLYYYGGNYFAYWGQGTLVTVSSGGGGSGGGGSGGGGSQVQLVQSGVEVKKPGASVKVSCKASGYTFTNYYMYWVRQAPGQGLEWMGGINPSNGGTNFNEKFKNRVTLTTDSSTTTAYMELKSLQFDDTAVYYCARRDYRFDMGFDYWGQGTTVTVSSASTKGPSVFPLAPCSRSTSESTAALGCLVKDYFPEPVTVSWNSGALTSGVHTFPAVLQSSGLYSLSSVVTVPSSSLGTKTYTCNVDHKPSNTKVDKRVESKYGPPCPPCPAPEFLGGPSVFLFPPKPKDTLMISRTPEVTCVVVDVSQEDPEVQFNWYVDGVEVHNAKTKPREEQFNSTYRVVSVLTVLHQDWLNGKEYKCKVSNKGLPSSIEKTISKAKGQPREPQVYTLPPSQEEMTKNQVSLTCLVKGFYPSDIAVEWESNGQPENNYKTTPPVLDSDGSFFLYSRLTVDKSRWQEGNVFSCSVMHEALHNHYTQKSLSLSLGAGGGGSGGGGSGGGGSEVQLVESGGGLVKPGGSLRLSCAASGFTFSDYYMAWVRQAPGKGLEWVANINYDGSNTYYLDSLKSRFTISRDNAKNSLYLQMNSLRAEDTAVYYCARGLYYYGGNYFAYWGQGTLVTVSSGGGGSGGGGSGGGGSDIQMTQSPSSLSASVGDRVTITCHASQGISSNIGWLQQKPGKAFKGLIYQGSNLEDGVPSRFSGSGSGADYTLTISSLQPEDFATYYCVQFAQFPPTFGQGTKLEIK
# B5: bispecific antibody LB124 (bispecific antibody, human IgG4 S228P, kappa)
# light: EIVLTQSPATLSLSPGERATISCRASKGVSTSGYSYLHWYQQKPGQAPRLLIYLASYLESGVPARFSGSGSGTDFTLTISSLEPEDFATYYCQHSRELPLTFGTGTKVEIKRTVAAPSVFIFPPSDEQLKSGTASVVCLLNNFYPREAKVQWKVDNALQSGNSQESVTEQDSKDSTYSLSSTLTLSKADYEKHKVYACEVTHQGLSSPVTKSFNRGEC
# heavy: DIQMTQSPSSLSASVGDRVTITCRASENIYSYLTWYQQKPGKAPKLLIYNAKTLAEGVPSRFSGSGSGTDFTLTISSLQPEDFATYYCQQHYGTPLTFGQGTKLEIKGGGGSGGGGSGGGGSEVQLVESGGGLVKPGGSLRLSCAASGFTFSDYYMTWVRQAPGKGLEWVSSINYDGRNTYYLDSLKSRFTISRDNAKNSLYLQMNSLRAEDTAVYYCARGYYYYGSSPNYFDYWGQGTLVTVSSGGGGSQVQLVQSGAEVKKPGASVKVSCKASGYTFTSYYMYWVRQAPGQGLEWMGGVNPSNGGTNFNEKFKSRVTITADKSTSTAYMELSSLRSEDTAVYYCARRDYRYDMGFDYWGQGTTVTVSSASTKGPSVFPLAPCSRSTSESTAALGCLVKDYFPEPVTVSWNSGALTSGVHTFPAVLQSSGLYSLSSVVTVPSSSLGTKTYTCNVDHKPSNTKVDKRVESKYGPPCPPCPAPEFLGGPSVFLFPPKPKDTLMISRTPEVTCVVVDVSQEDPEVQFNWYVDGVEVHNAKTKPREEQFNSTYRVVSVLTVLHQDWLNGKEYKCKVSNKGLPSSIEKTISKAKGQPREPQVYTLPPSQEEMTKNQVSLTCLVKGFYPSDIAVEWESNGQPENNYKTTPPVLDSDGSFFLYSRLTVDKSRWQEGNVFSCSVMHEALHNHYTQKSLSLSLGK
# B6: bispecific antibody LB136 (bispecific antibody, human IgG4 S228P, kappa)
# light: EIVLTQSPATLSLSPGERATISCRASKGVSTSGYSYLHWYQQKPGQAPRLLIYLASYLESGVPARFSGSGSGTDFTLTISSLEPEDFATYYCQHSRELPLTFGTGTKVEIKRTVAAPSVFIFPPSDEQLKSGTASVVCLLNNFYPREAKVQWKVDNALQSGNSQESVTEQDSKDSTYSLSSTLTLSKADYEKHKVYACEVTHQGLSSPVTKSFNRGEC
# heavy: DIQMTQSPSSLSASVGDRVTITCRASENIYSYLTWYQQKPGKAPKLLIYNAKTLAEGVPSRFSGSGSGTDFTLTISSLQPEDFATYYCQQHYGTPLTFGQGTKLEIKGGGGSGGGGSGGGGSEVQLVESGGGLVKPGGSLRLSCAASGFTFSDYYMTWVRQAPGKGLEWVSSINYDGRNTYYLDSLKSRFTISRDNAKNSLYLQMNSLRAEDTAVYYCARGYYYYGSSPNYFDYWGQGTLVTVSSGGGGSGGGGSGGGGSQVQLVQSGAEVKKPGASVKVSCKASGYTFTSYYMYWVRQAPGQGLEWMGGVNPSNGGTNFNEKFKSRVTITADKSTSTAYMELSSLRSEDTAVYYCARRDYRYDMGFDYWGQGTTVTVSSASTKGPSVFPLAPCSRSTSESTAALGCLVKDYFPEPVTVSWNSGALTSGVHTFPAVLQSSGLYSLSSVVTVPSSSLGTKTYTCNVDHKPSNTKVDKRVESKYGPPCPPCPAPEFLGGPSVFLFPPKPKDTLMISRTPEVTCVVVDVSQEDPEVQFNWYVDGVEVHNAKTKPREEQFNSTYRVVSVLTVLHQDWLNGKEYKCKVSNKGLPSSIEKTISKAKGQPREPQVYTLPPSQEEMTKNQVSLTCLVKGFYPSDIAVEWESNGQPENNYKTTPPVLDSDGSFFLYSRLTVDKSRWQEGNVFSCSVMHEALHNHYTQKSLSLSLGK
# notes: ab32VL-(G4S)3-ab32VH-(G4S)3-Ba08VH-hIgG4 with Ba08VL-κ
# B7: bispecific antibody LB143 (bispecific antibody, human IgG4 S228P, kappa)
# light: EIVLTQSPATLSLSPGERATLSCRASKGVSTSGYSYLHWYQQKPGQAPRLLIYLASYLESGVPARFSGSGSGTDFTLTISSLEPEDFAVYYCQHSRDLPLTFGGGTKVEIKRTVAAPSVFIFPPSDEQLKSGTASVVCLLNNFYPREAKVQWKVDNALQSGNSQESVTEQDSKDSTYSLSSTLTLSKADYEKHKVYACEVTHQGLSSPVTKSFNRGEC
# heavy: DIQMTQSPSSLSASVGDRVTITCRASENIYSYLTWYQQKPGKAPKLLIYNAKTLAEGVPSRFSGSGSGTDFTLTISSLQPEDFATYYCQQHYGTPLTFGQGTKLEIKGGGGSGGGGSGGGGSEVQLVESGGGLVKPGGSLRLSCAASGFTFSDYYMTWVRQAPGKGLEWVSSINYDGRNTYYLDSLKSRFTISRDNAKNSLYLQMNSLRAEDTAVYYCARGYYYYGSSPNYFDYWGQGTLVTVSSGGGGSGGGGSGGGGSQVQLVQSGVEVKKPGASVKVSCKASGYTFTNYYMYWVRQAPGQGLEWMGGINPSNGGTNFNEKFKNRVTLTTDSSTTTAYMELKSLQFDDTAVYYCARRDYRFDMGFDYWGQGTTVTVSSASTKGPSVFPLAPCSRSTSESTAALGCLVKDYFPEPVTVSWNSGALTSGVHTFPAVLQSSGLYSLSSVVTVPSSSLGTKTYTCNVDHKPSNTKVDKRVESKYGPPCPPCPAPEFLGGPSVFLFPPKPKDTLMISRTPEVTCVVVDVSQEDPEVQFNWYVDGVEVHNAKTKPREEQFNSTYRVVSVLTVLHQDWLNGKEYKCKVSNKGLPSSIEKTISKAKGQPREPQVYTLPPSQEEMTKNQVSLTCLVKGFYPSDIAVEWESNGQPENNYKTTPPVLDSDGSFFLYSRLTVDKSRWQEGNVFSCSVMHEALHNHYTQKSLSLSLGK
# notes: ab32VL-(G4S)3-ab32VH-(G4S)3-PemVH-hIgG4 with PemVL-κ
# B8: bispecific antibody LB129 (bispecific antibody, human IgG4 S228P, kappa)
# light: DIQMTQSPSSLSASVGDRVTITCRASENIYSYLTWYQQKPGKAPKLLIYNAKTLAEGVPSRFSGSGSGTDFTLTISSLQPEDFATYYCQQHYGTPLTFGQGTKLEIKRTVAAPSVFIFPPEIVLTQSPATLSLSPGERATISCRASKGVSTSGYSYLHWYQQKPGQAPRLLIYLASYLESGVPARFSGSGSGTDFTLTISSLEPEDFATYYCQHSRELPLTFGTGTKVEIKRTVAAPSVFIFPPSDEQLKSGTASVVCLLNNFYPREAKVQWKVDNALQSGNSQESVTEQDSKDSTYSLSSTLTLSKADYEKHKVYACEVTHQGLSSPVTKSFNRGEC
# heavy: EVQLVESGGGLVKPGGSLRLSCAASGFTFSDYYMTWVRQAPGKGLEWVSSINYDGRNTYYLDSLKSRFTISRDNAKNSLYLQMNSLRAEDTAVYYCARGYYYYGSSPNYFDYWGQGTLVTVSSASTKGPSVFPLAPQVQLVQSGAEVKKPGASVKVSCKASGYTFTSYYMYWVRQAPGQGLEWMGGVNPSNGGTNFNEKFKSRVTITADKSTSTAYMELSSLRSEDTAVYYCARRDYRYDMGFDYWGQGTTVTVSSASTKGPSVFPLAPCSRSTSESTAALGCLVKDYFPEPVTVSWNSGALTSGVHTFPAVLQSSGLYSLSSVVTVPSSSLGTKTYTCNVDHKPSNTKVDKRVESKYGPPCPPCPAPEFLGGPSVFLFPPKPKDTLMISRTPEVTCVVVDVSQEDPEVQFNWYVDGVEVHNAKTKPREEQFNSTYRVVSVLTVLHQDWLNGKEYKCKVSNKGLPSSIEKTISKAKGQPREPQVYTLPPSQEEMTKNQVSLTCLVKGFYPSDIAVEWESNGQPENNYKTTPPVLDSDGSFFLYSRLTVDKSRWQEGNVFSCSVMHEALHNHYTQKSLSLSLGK
# B9: humanized anti-TIM-3 antibody ab32 (antibody, IgG4, V domains shown)
# VH: EVQLVESGGGLVKPGGSLRLSCAASGFTFSDYYMTWVRQAPGKGLEWVSSINYDGRNTYYLDSLKSRFTISRDNAKNSLYLQMNSLRAEDTAVYYCARGYYYYGSSPNYFDYWGQGTLVTVSS
# VL: DIQMTQSPSSLSASVGDRVTITCRASENIYSYLTWYQQKPGKAPKLLIYNAKTLAEGVPSRFSGSGSGTDFTLTISSLQPEDFATYYCQQHYGTPLTFGQGTKLEIK
# notes: also called ab32 intact antibody
# How the values were obtained:
# [1] = molecular target: T1, human TIM-3 extracellular domain-human IgG1 Fc fusion protein (human, UniProt Q8TDQ0 22-199); experiment: ELISA
# T1 construct: Made in house or bought (ACROBiosystems TM3-H5258); also called TIM-3-hFc; not shown: human IgG1 Fc
# [2] = molecular target: T2, human PD-1 extracellular domain protein expressed in Example 1 (tag not stated) (human, UniProt Q15116 25-170); experiment: ELISA, PD-1 coated
# T2 construct: extracellular domain; also called PD-1 protein; not shown: human IgG1 Fc or his tag
# Method: (§1) PD-1 expressed in Example 1 was diluted to a concentration of 1 μg/ml with PBS buffer, pH 7.4, and added to a 96-well microplate (Corning, CLS3590-100EA) at 50 μl per well, thereby incubating in an incubator at 37° C. for 2 hours. After discarding the liquid, a blocking solution of 5% skimmed milk (Shanghai Shenggong Biological Engineering Co., Ltd., A600669-0250) diluted with PBS was added at 200 μl per well, followed by incubating at 37° C. for 3 hours or 4° C. overnight (16-18 hours)) for blocking. Subsequently, the blocking solution was discarded, and the microplate was washed 5 times with PBST buffer (pH 7.4 PBS containing 0.05% tween-20). […] Subsequently, the microplate was washed 5 times with PBST, then 50 μl/well of 1:2500 diluted HRP-labeled secondary antibody (Jackson Immuno Research, 115-035-003) was added, thereby incubating at 37° C. for 1 hour. After washing the microplate 5 times with PBST, 50 μl/well TMB chromogenic substrate (KPL, 52-00-03) was added, then incubated at room temperature for 5-10 min. Finally, 50 μl/well of 1M H₂SO₄ was added to stop the reaction. […] Go microplate reader (ThermoFisher, 51119200) was used to read the absorption value at 450 nm and the EC50 based on the OD value was calculated.
# The TIM-3 and PD-1 bispecific antibodies of the present invention were tested for their affinity for TIM-3 and PD-1 using the methods in Example 3 and Example 5, respectively.
# [3] = molecular target: T2, human PD-1 extracellular domain protein …; experiment: blocking ELISA, PD-1 coated, competitor biotin-labeled PD-L1
# [4] = molecular target: T2, human PD-1 extracellular domain protein …; experiment: ELISA, PD-1 coated; remark: listed apart in the source
# Method: as §1
# (§2) The above-mentioned TIM-3 and PD-1 bispecific antibodies of the present invention were optimized and designed using the methods of Example 2 and Example 5, and their affinity for TIM-3 and PD-1 were tested respectively.
# [5] = molecular target: T1, human TIM-3 extracellular domain-human …; experiment: ELISA; remark: listed apart in the source
# Method: (§3) Goat-anti-hFc (Jackson, 109-005-008) was diluted to a concentration of 1 μg/ml with PBS buffer (pH 7.4) and added to a 96-well microplate (Corning, CLS3590-100EA) at a volume of 50 μl/well, then incubated in an incubator at 37° C. for 2 hours (Or the antigen TIM-3 was directly used to coat the microplate with a concentration of 0.5 μg/ml, and then the antibody to be tested was directly added). After discarding the liquid, a blocking solution of 5% skimmed milk (skimmed milk powder purchased from Bright) diluted with PBS was added at 200 μl per well, and the microplate was incubated for 2.5 hours at 37° C. or overnight (16-18 hours) at 4° C. for blocking. The blocking solution was discarded, and the microplate was washed 5 times with PBST buffer (PBS with pH 7.4 containing 0.05% tween-20), then 50 μl/well of 0.5 μg/ml TIM-3-hFc (Example 1) was added and incubated for 2 hours in a 37° C. incubator. After incubation, the microplate was washed 6 times with PB ST. 50 μl/well of supernatant (containing testing antibody) or different concentrations of the antibody to be tested was added, and the microplate was incubated at 37° C. for 2 hours and washed 5 times with PBST. 50 μl/well of 1:2500 diluted HRP-labeled secondary antibody (Jackson Immuno Research, 115-035-003) was added to the microplate, incubating at 37° C. for 1 hour. After washing the microplate 5 times with PBST, 50 μl/well TMB chromogenic substrate (KPL, 52-00-03) was added to the microplate, followed by incubating at room temperature for 10-15 min.
# as §2
# Human PD-1-his = molecular target: T3, Human PD-1-his (human, UniProt Q15116 25-170); experiment: SPR Biacore, antibody captured on Protein A, antigen in flow
# T3 construct: extracellular domain; not shown: his tag
# Method: (§4) First, Protein A (Thermo Pierce, Cat #21181) was conjugated to the biosensing chip CMS (Cat. #BR-1005-30, GE), and the chip was activated with the newly prepared 50 mM NHS (N-hydroxysuccinimide) and 200 mM EDC [1-ethyl-3-(3-dimethylaminopropyl) carbodiimide hydrochloride], then 10 μg/ml Protein A prepared with 10 mM NaAC (pH 4.0) was injected. […] The flow rate was 30 μl/min, the binding time was 180 seconds and the dissociation time is 300 seconds. Subsequently, the chip was washed for 30s with 10 mM Glycine-HCl (pH 1.5) at 30 μl/min. The data were fitted with a 1:1 Langmuir model using the software of Biacore T200 evaluation version 3.0 (GE), and the affinity value KD was obtained.
# [6] = molecular target: T4, human TIM-3 extracellular domain-his tag protein (human, UniProt Q8TDQ0 22-199); experiment: as above
# T4 construct: Made in house or bought (ACROBiosystems TM3-H5229); also called TIM-3-his; Human Tim3-his; not shown: his tag
# Method: as §4
# [7] = molecular target: T1, human TIM-3 extracellular domain-human …; experiment: ELISA; remark: listed apart in the source
# Method: as §3
# [8] = molecular target: T2, human PD-1 extracellular domain protein …; experiment: ELISA, PD-1 coated; remark: listed apart in the source
# Method: as §1
# [9] = molecular target: T2, human PD-1 extracellular domain protein …; experiment: ELISA, EC50 of bispecific over EC50 of the monoclonal control
# Method: After washing the microplate 5 times with PBST, 50 μl/well TMB chromogenic substrate (KPL, 52-00-03) was added to the microplate, followed by incubating at room temperature for 10-15 min.
# as §1
# [10] = molecular target: T1, human TIM-3 extracellular domain-human …; experiment: as above
# [11] = molecular target: T4, human TIM-3 extracellular domain-his …; experiment: SPR Biacore, antibody captured on Protein A, TIM-3-his in flow
# Method: as §4
# [12] = molecular target: T1, human TIM-3 extracellular domain-human …; experiment: ELISA; remark: listed apart in the source
# [13] = molecular target: T1, human TIM-3 extracellular domain-human …; experiment: ELISA on human TIM-3, OD450 against Log[nM] of antibody
Binder,EC50 [1] [nM],EC50 [2] [nM],IC50 [3] [nM],EC50 [4] [nM],EC50 [5] [nM],also measured
B1,0.325,0.423,,,,
B2,,,1.49,0.082,0.145,
B3,0.181,0.216,,,,
B4,,,,,,Kd (Human PD-1-his): 7.34 nM; koff (Human PD-1-his): 0.00259 s⁻¹; kon (Human PD-1-his): 353000 M⁻¹ s⁻¹; Kd [6]: 8.29 nM; koff [6]: 0.00332 s⁻¹; kon [6]: 401000 M⁻¹ s⁻¹; EC50 [7]: 1.86 nM; EC50 [8]: 0.19 nM; Multiple of EC50 variation [9]: 1.98 ratio; Multiple of EC50 variation [10]: 2.38 ratio
B5,0.438,0.383,,,,
B6,,,1,0.065,0.178,
B7,,,1.88,0.064,0.14,
B8,0.558,0.508,,,,
B9,,,,,0.036,Kd [11]: 1.18 nM; koff [11]: 0.000296 s⁻¹; kon [11]: 251000 M⁻¹ s⁻¹; EC50 [12]: 0.09 nM; EC50 (read off the curve) [13]: ~0.2 nM
